The text below walks through data of article PMC12499481, “Design of the Hydrophobic Core of Self‐Assembling Peptide Fibrils for Enhanced Neural Regeneration” (Small Science, 2025).

The labels stand for the following.
B1: EF‐CL (peptide)
peptide: KLKLQLN
notes: designed variant of enhancing factor-C (EF-C), pattern KXKXQXN with X = L; self-assembling peptide; made on Fmoc-Asn(Trt) Wang resin; also called KLKLQLN; source: synthetic peptide (Fmoc-SPPS, preparative RP-HPLC, purity ≥ 90 %)
B2: EF‐CW (peptide)
peptide: KWKWQWN
notes: designed variant of enhancing factor-C (EF-C), pattern KXKXQXN with X = W; self-assembling peptide; made on Fmoc-Asn(Trt) Wang resin; also called KWKWQWN; source: synthetic peptide (Fmoc-SPPS, preparative RP-HPLC, purity ≥ 90 %)
B3: EF‐CV (peptide)
peptide: KVKVQVN
notes: designed variant of enhancing factor-C (EF-C), pattern KXKXQXN with X = V; self-assembling peptide; made on Fmoc-Asn(Trt) Wang resin; also called KVKVQVN; source: synthetic peptide (Fmoc-SPPS, preparative RP-HPLC, purity ≥ 90 %)
B4: EF‐CI (peptide)
peptide: KIKIQIN
notes: designed variant of enhancing factor-C (EF-C), pattern KXKXQXN with X = I; self-assembling peptide; made on Fmoc-Asn(Trt) Wang resin; also called KIKIQIN; source: synthetic peptide (Fmoc-SPPS, preparative RP-HPLC, purity ≥ 90 %)
B5: EF‐CF (peptide)
peptide: KFKFQFN
notes: designed variant of enhancing factor-C (EF-C), pattern KXKXQXN with X = F; self-assembling peptide; made on Fmoc-Asn(Trt) Wang resin; also called KFKFQFN; source: synthetic peptide (Fmoc-SPPS, preparative RP-HPLC, purity ≥ 90 %)

Where only a bound is given, the exact number is not on record here.

One series concerns the molecule itself. Put plainly: dynamic light scattering; self-assembly; peptide diluted from 10 mM DMSO stock into DPBS (6 μM to 1 mM), 24 h incubation, room temperature; derived count rate below 5 kcps defined as no aggregation.
B1 registered an aggregation concentration of no more than 100 µM.
Same read-out and setting: for B2 the value was no more than 100 µM; for B3, no more than 100 µM; for B4, no more than 100 µM.
Protein B5 yielded an aggregation concentration of no more than 100 µM.

A further series deals with the molecule itself. Put plainly: conversion rate assay (3 kDa centrifugal filtration, fluorescamine fluorescence); self-assembly; 1 mM peptide incubated 24 h, monomers separated from fibers at 12 000 g for 60 min at 4 °C; filtrated against nonfiltrated fluorescence.
B1 gave a conversion rate of 73%.
The same measure, in the same setting: to B2 belongs 94%; to B3, 62%.
With B4, the conversion rate was determined as 93%.
Regarding B5, the conversion rate turned out to be 94%.
